These results are taken from article PMC8631008 (FEBS letters, 2021).

For the test, the target named is T1, Pleiotrophin, wild type (mature, residues 1 to 136) (human, UniProt P21246 33-168).
T1 sequence (looked up): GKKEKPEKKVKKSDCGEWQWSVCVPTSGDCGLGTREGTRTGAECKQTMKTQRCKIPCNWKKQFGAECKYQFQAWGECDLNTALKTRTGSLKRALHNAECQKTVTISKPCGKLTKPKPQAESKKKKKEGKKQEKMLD
Briefly: NMR titration.

GGGEDGDTDDDGDDDDDDRGSDGLSIHK [PTPRZ peptide (residues G1414 to K1441 of receptor type protein tyrosine phosphatase ζ)] registered a Kd of roughly 30 µM.

One may read the Kd as the concentration at which binding is half-saturated. Low readings indicate a tighter complex, high ones a looser complex.
